Where a chain is given by its changes, count along the chain named. Names may count otherwise.

B1: PDIA6 his-domain ab (residues 161-440) (domain or fragment, human, UniProt Q15084 161-440, looked up)
chain: DVIELTDDSFDKNVLDSEDVWMVEFYAPWCGHCKNLEPEWAAAASEVKEQTKGKVKLAAVDATVNQVLASRYGIRGFPTIKIFQKGESPVDYDGGRTRSDIVSRALDLFSDNAPPPELLEIINEDIAKRTCEEHQLCVVAVLPHILDTGAAGRNSYLEVLLKLADKYKKKMWGWLWTEAGAQSELETALGIGGFGYPAMAAINARKMKFALLKGSFSEQGINEFLRELSFGRGSTAPVGGGAFPTIVEREPWDGRDGELPVEDDIDLSDVELDDLGKDEL
notes: PDIA6, human, domains a and b with the C-terminal tail, residues 161-440; also called PDIA6 domain ab; his-TEV-domain ab; source: E. coli BL21-(DE3)-Lemo, purified (Ni-NTA, SEC); not shown: His6, N-terminal, kept
B2: 21-residue peptide corresponding to the a0-a linker of PDIA6 (peptide)
peptide: GGRSGGYSSGKQGRSDSSSKK
notes: linker between domains a0 and a of human PDIA6; Limits worked out from the printed positions R142, K150, R153, K159, K160 of the linker mutants; also called linker peptide
B3: Human PDIA6 lacking its ER signal sequence (residues 19-440) (natural protein, UniProt Q15084-1 19-440, looked up)
chain: GLYSSSDDVIELTPSNFNREVIQSDSLWLVEFYAPWCGHCQRLTPEWKKAATALKDVVKVGAVDADKHHSLGGQYGVQGFPTIKIFGSNKNRPEDYQGGRTGEAIVDAALSALRQLVKDRLGGRSGGYSSGKQGRSDSSSKKDVIELTDDSFDKNVLDSEDVWMVEFYAPWCGHCKNLEPEWAAAASEVKEQTKGKVKLAAVDATVNQVLASRYGIRGFPTIKIFQKGESPVDYDGGRTRSDIVSRALDLFSDNAPPPELLEIINEDIAKRTCEEHQLCVVAVLPHILDTGAAGRNSYLEVLLKLADKYKKKMWGWLWTEAGAQSELETALGIGGFGYPAMAAINARKMKFALLKGSFSEQGINEFLRELSFGRGSTAPVGGGAFPTIVEREPWDGRDGELPVEDDIDLSDVELDDLGKDEL
notes: Homodimer by SEC-MALS; Isotope-labelled (methyl labelling) for NMR; also called PDIA6 WT; PDIA6 full-length; not shown: His6, N-terminal, cleaved
B4: PDIA6 (K150N, R153Q, K159N) linker mutant (natural protein, human, UniProt Q15084 19-440, looked up)
chain: B3 chain with K132N, R135Q, K141N
notes: PDIA6, human, residues 19-440; source: E. coli BL21-(DE3)-Lemo, purified as the WT protein; not shown: His6, N-terminal, cleaved
B5: PDIA6 5x linker mutant (R142Q, K150N, R153Q, K159N and K160N) (natural protein, human, UniProt Q15084 19-440, looked up)
chain: B3 chain with R124Q, K132N, R135Q, K141N, K142N
notes: as for B4
B6: PDIA6 (R142Q, K150N, R153Q) linker mutant (natural protein, human, UniProt Q15084 19-440, looked up)
chain: B3 chain with R124Q, K132N, R135Q
notes: as for B4
B7: DyLight 488-PDIA6 (N-terminally tagged, residues 19-440) (natural protein, human, UniProt Q15084 19-440, looked up)
chain: B3 chain
modifications: DyLight 488 amine-reactive dye on the N-terminus
notes: Same construct as m1, fluorescently labelled for MST (0.75-1.5 moles dye per mole protein); not shown: His6, N-terminal, cleaved

For series [1], the target named is T1, Human BiP lacking its ER signal sequence (residues 19-654) (human, UniProt P11021 19-654).
T1 construct: Isotope-labelled (Ile, Met, Val methyl groups) where it was the observed protein in NMR; also called Hsp70 BiP; GRP78; not shown: His6, N-terminal, cleaved
T1 sequence (P11021 19-654): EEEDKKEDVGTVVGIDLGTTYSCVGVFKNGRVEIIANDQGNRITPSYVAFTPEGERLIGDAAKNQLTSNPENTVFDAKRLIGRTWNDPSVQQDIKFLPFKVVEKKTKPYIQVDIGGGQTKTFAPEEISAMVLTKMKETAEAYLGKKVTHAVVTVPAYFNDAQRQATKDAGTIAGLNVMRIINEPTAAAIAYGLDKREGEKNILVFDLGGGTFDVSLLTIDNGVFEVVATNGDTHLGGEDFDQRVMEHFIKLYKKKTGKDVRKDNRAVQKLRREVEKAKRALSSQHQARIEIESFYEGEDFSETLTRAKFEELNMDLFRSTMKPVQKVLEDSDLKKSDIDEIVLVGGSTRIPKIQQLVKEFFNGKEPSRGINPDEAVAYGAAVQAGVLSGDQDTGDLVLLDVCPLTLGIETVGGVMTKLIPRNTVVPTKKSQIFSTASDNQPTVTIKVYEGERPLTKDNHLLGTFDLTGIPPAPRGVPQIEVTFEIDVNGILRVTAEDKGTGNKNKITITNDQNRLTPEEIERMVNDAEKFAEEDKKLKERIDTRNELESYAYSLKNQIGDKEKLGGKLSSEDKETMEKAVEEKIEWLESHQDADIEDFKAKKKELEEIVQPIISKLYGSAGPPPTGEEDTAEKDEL
Nature of the series: NMR titration; 2D [13C,1H]-HMQC or [15N,1H]-HSQC of 100 μM labelled protein without and with 2 eq. of the unlabelled partner; chemical shift perturbation mapping; 37 °C. The following applies: both partners purified.

Series [2] addresses B3. Nature of the series: NMR titration; 2D [13C,1H]-HMQC of methyl-labelled full-length PDIA6 with 10 mM Ca2+, 10 eq. linker peptide added, no crowding agent, 37 °C; read-out: populations of conformations P and O of domain b; also after addition of 1 M KCl. The conditions noted are these: both partners purified.
Series [3] deals with the molecule itself. Kind of series: SEC-MALS; S200 10/300 GL column, 25 °C, SEC buffer (25 mM HEPES pH 7.5, 150 mM KCl, 10 mM MgCl2); proteins eluted at 20 μM.
Series [4] concerns the target T1, Human BiP lacking its ER signal …. Kind of series: MST; 20 nM N-terminally tagged DyLight 488-PDIA6 with increasing BiP; SEC buffer with 5 mM ADP, 1 mM KH2PO4/K2HPO4, 0.05% Tween, 1 mM CaCl2; 30 min at 25 °C; Monolith NT.115; triplicates. The following applies: both partners purified.

For the molecule B1, the binding result in series [1] was “binds”.
As to B2, the binding result in series [2] is “binds”.
In the case of B3, in series [3], the “stoichiometry N” value is 2. The binding result in series [1] is listed as “binds”.
B4: the “stoichiometry N” value in series [3] came out at 2.
B5: the “stoichiometry N” value in series [3] was 2.
Consider B6, for which, in series [3], the “stoichiometry N” value was 2.
Regarding B7, the Kd in series [4] was roughly 50 µM.

A word on the stoichiometry N: it is a count of units in the complex or per binding partner. In general, Kd refers to the concentration at which binding is half-saturated. Lower therefore signals higher affinity.
